Test results as given in IntAct's records for PubMed 17255092.

B1: SWI/SNF complex subunit SMARCC1 (Mus musculus), P97496 (parent)
chain: MAATAGGGPGAAAGAVGAGGAAAASGLAVYRRKDGGPASKFWESPDTVSQLDSVRVWLGKHYKKYVHADAPTNKTLAGLVVQLLQFQEDAFGKHVTNPAFTKLPAKCFMDFKAGGTLCHILGAAYKYKNEQGWRRFDLQNPSRMDRNVEMFMNIEKTLVQNNCLTRPNIYLIPDIDLKLANKLKDIIKRHQGTFTDEKSKASHHIYPYPSSQEDEEWLRPVMRRDKQVLVHWGFYPDSYDTWVHSNDVDAEIEDAPIPEKPWKVHVKWILDTDVFNEWMNEEDYEVDENRKPVSFRQRISTKNEEPVRSPERRDRKASANSRKRKPSPSPPPPTATESRKKSGKKGQASLYGKRRSQKEEDEQEDLTKDMEDPTPVPNIEEVVLPKNVNPKKDSENTPVKGGTVADLDEQDEEAVTTGGKEDEDPSKGDPSRSVDPGEDNVTEQTNHIIIPSYASWFDYNCIHVIERRALPEFFNGKNKSKTPEIYLAYRNFMIDTYRLNPQEYLTSTACRRNLTGDVCAVMRVHAFLEQWGLVNYQVDPESRPMAMGPPPTPHFNVLADTPSGLVPLHLRSPQVPAAQQMLNFPEKNKEKPIDLQNFGLRTDIYSKKTLAKSKGASAGREWTEQETLLLLEALEMYKDDWNKVSEHVGSRTQDECILHFLRLPIEDPYLENSDASLGPLAYQPVPFSQSGNPVMSTVAFLASVVDPRVASAAAKAALEEFSRVREEVPLELVEAHVKKVQEAARASGKVDPTYGLESSCIAGTGPDEPEKLEGSEEEKMETDPDGQQPEKAENKVENESDEGDKIQDRENEKNTEKEQDSDVSEDVKPEEKENEENKELTDTCKERESDAGKKKVEHEISEGNVATAAAAALASAATKAKHLAAVEERKIKSLVALLVETQMKKLEIKLRHFEELETIMDREKEALEQQRQQLLTERQNFHMEQLKYAELRARQQMEQQQQHGQTPQQAHQHTGGPGMAPLGATGHPGMMPHQQPPPYPLMHHQMPPPHPPQPGQIPGPGSMMPGQPMPGRMIPAVAANIHPTGSGPTPPGMPPMPGNILGPRVPLTAPNGMYPPPPQQQQPPPPADGVPPPPAPGPPASATP

Variants of: B1
Settings: with snf5_mouse Smarcb1, Q9Z0H3
Chain of snf5_mouse Smarcb1, Q9Z0H3 (Q9Z0H3 whole entry): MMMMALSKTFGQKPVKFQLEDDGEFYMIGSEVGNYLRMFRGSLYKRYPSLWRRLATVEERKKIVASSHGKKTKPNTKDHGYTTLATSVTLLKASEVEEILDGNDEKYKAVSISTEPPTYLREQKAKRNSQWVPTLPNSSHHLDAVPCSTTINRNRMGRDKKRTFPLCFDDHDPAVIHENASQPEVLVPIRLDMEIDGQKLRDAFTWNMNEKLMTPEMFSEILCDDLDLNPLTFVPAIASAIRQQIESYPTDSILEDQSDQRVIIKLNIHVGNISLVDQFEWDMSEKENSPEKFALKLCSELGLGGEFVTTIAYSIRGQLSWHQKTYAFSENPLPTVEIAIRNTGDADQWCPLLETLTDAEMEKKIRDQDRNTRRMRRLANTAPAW

Row | effect of a mutation on the interaction | Variant
1 | decreasing interaction | N535A
2 | decreasing interaction | L533A
3 | disrupting interaction | L533A;N535A

Variants of: B1
Settings: with snf5_mouse Smarcb1, Q9Z0H3
Remark: another data set of the same source

Row | effect of a mutation on the interaction | Variant
4 | disrupting interaction strength | L533A;N535A
